{"source": "patent US20250320288A1", "about": "“METHOD OF TREATING VITILIGO WITH INTERFERON-GAMMA ANTIBODY” (Elixiron Immunotherapeutics (Hong Kong), priority 2022, published 2025)", "molecules": {"B1": {"name": "CXCL11: IFN-γ downstream cytokine added to melanocytes (protein, UniProt O14625 22-94, looked up)", "C-X-C motif chemokine 11": "FPMFKRGRCLCIGPGVKAVKVADIEKASIMYPSNNCDKIEVIITLKENKGQRCLNPKSKQARLIIKKVERKNF"}, "B2": {"name": "IFN-γ: recombinant human interferon gamma, cytokine added to melanocytes (protein, UniProt P01579 24-161, looked up)", "Interferon gamma": "QDPYVKEAENLKKYFNAGHSDVADNGTLFLGILKNWKEESDRKIMQSQIVSFYFKLFKNFKDDQSIQKSVETIKEDMNVKFFNSNKKKRDDFEKLTNYSVTDLNVQRKAIHELIQVMAELSPAAKTGKRKRSQMLFRG"}, "B3": {"name": "CXCL9: IFN-γ downstream cytokine added to melanocytes (protein, UniProt Q07325 23-125, looked up)", "C-X-C motif chemokine 9": "TPVVRKGRCSCISTNQGTIHLQSLKDLKQFAPSPSCEKIEIIATLKNGVQTCLNPDSADVKELIKKWEKQVSQKKKQKNGKKHQKKKVLKVRKSQRSRQKKTT"}}, "key": {"primary melanocytes [1]": {"system": "primary melanocytes", "assay": "Melanocyte cell viability after IFN-γ, chemokines, cell death inhibitors or 2A6Q, Day 2 and Day 7", "type": "cell-based, human", "details": "day 7 of treatment", "procedure": "To determine cell viability of melanocyte after treatment with IFN-γ, CXCL9, CXCL10, CXCL11, at Day 2, and Day 7, the cells were collected and seeded into 96-well plates. After adhesion, cells were treated with IFN-γ (0, 10, 100 ng/ml) with different compounds: 2A6Q, CXCL9, CXCL10, CXCL11, ROS scavenger (NAC), necroptosis inhibitor (NEC-1), pyroptosis inhibitor (VX-765), apoptosis inhibitor (QVD-OPH), Ferroptosis inhibitor (Liproxstaitin-1, Ferrostatin-1, DFO). Cell viability was measured using a CellTiter-Glo luminescent cell viability assay kit (Promega) according to the manufacturer's protocol. The […] of the final reaction product was measured using a luminometer (SpectraMax® iD3 Multi-Mode Microplate Reader (Molecular Devices). After calculation, the viability of control cells was 100%, and all others were normalized to control and shown as relative cell viability (%). Treatment dosage N-acetylcysteine (NAC; 0.05 mM, 1 mM), Necrostatin-1 (NEC-1; 20 μM, 2 μM), Belnacasan (VX-765; 50 μg/mL, 5 μg/mL), Quinoline-Val Asp-Difluorophenoxymethylketone (QVD-OPH; 10 μM, 2 μM), Liproxstaitin-1 (10 μM, 5 μM, 1 μM, 0.05 μM), Ferrostatin-1 (5 μM, 1 μM), Deferoxamine (DFO; 10 μM, […], 1 μM, 0.05 μM), 2A6Q (10 μg/mL), CXCL9 (10 ng/mL, 10 pg/mL), CXCL10 (10 ng/ml, 10 pg/mL), CXCL11(10 ng/mL, 10 pg/mL)."}, "melanocytes [2]": {"system": "melanocytes", "assay": "Melanocyte apoptosis, Annexin V / 7AAD flow cytometry", "type": "cell-based, human", "details": "IFN-γ 10 or 100 ng/ml, 48 hrs", "procedure": "Materials and methods: Melanocyte cell apoptosis was detected with Annexin V (BD, 550474) and 7AAD (1 mg/mL, Sigma A9400-1 MG). The cells were detached and resuspended with […] binding buffer (BD, 556454) containing Annexin V and 7AAD for 15 min at room temperature in the dark. Before analysis, cells were added to a […] binding buffer and immediately analyzed a on a flow cytometer (Verse BD)."}, "SLC7A11": {"system": "SLC7A11", "assay": "Ferroptosis regulators in melanocytes (RNA sequencing, SLC7A11 immunoblot)", "type": "cell-based, human", "source_text": "(§1) Total RNA was extracted from melanocytes with an RNA purification kit (Zymo Research, r2050). After RNA samples were extracted from primary melanocytes and melanocytes cell line (Gibco), the samples were sent to Biotools Co., Ltd Taiwan for RNA sequence. The RNA quality was examined by Agilent Technologies 2100 Bio-analyzer with an RNA integrity value greater than 8. After rRNA depletion (Epicenter), RNA fragmentation, and library preparation (Illumina), the constructed libraries were then performed 150 bp paired-end sequencing by an Illumina NovaSeq6000 sequencer. The results from each sample were aligned to the GRCh38 genome by the HISAT2 software and analyzed by Biotools Co., Ltd Taiwan.\n(§2) Cells were washed in PBS and lysed in RIPA lysis buffer with proteases inhibitor and Phenylmethanesulfonyl fluoride (PMSF; Sigma-Aldrich, P7626). The total cell lysates were sonicated and centrifuged at 4° C., 13000 rpm for 30 min. Protein concentration was quantified using the Bradford assay. The total cell lysates were separated by SDS-PAGE and transferred to a PVDF membrane. The membrane was blocked with 5% BSA or 5% milk in TBST for 1 hour at room temperature and incubated with primary antibodies overnight at 4° C. and HRP-conjugated secondary antibodies for hour at room temperature. The protein was visualized by Thermo ibright1500. Primary antibodies were follows: anti-human SLC7A11 (CST, 12691), anti-human SLC3A2 (CST, 13180), anti-IRF1 (CST, 8478), anti-MITF (CST, 12590), and anti-GAPDH (Abcam, ab8245)."}, "melanocytes [3]": {"system": "melanocytes", "assay": "Intracellular ROS in melanocytes (CM-H2DCFDA)", "type": "cell-based, human", "details": "10 and 100 ng/mL IFN-γ, day 7", "procedure": "Materials and methods: For intracellular ROS measurement, melanocytes were washed with PBS and incubated with 20 μM CM-H2DCFDA (Invitrogen) for 30 min at 37° C. in the dark. The cells were resuspended with PBS and examined with flow cytometry at an excitation wavelength of 488 nm and an emission wavelength of 530 nm; the data were analyzed with FlowJo."}, "[4]": {"system": "human primary melanocytes (HEMn-DP)", "assay": "IFN-γ inhibition of human primary melanocyte cell viability (CellTiter-Glo)", "type": "cell-based", "details": "72 hrs at 37° C.", "procedure": "Materials and methods: To examine the dose-dependency of IFN-γ inhibition of human primary melanocytes (HEMn-DP) cell viability, HEMn-DP cells were seeded into a 96-well plate at a concentration of 10,000 cells/well in 100 μL assay medium (M254 supplemented with 1× HMGS, 10 ng/mL PMA plus Penicillin-Streptomycin) at 37° C. for 5 hours. After seeding, 100 μL of IFN-γ serial dilutions were added, followed by incubation at 37° C. for 72 hrs. Then, cell proliferation was measured using CellTiter-Glo kit (Promega) according to the manufacturer's instructions. Luminescence was measured with an iD3 multimode reader (Molecular Devices), and data analyzed using nonlinear regression curve fit using GraphPad Prism7."}, "primary melanocytes [5]": {"system": "primary melanocytes", "assay": "Cell morphology assay in melanocytes", "type": "cell-based, human"}, "[6]": {"system": "human primary melanocytes (HEMn-DP)", "assay": "IFN-γ inhibition of melanocyte melanogenesis (melanin content, absorbance 470 nm)", "type": "cell-based", "procedure": "Materials and methods: To examine the dose-dependency of IFN-γ inhibition of HEMn-DP cell melanogenesis, HEMn-DP cells were seeded into a 24-well plate at a concentration of 200,000 cells/well in 1 mL assay medium (M254 supplemented with 1× HMGS, 10 ng/mL PMA plus Penicillin-Streptomycin) with serial dilutions of IFN-γ, followed by incubation at 37° C. for 7 days. The cell assay medium was replaced by fresh medium with serially titrated concentrations of IFN-γ on day 3 and day 5. On day 7, cells were first washed with PBS twice, lysed in 250 μL of 1N NaOH/10% DMSO solution, then incubated at 80° C. for 1 hr. After lysis, each lysate was transfer to 96 well plate, and absorbance of melanin was then measured at […]. The relative melanin quantity was normalized with cell viability of each sample which was measured by CellTiter-Glo kit, and data were analyzed using nonlinear regression curve fit using GraphPad Prism7. To determine the potency of EI-001, HEMn-DP cells were seeded as previously described, and IFN-γ pre-incubated with indicated amounts of EI-001 for 25 min in 1 mL of assay medium. After incubation, the mixture was added to each well (final IFN-γ concentration is 20 ng/ml). Melanin content of melanocytes was determined as previously described."}, "MITF": {"system": "MITF", "assay": "Melanin regulators in melanocytes (RNA sequencing, MITF immunoblot)", "type": "cell-based, human", "source_text": "as §1, §2"}, "melanocytes [7]": {"system": "melanocytes", "assay": "Lipid peroxidation in melanocytes (BODIPY 581/591 C11)", "type": "cell-based, human", "details": "dose-dependent, Day 6", "procedure": "For lipid peroxidation examination, melanocyte cells were seeded in a 6-well plate and treated with IFN-γ the next day. Melanocytes were washed with PBS and incubated with Hanks balanced salt solution (HBSS, Gibco) containing 5 μM BODIPY 581/591 C11 (Invitrogen, D3861) and incubated for 15 minutes at 37° C. in a tissue culture incubator. The cells were resuspended with fresh HBSS and examined with flow cytometry; the data were analyzed with FlowJo."}}, "note": "Entries after “also recorded” stand apart in the source; their conditions may differ.", "data": [{"molecule": "B1", "values": [{"measurement": "effect on cell viability of melanocytes (individual cytokine)", "setting": "primary melanocytes [1]", "value": "not CXCL9, CXCL10, or CXCL11 significantly decreases"}]}, {"molecule": "B2", "values": [{"measurement": "early phase apoptosis in melanocytes (Annexin V)", "setting": "melanocytes [2]", "value": "induced early phase apoptosis; also recorded: significantly upregulate Annexin V but not 7AAD"}, {"measurement": "expression of ferroptosis markers SLC7A11, SLC3A2, Ferritin, GPX4 and TFR1 (RNA sequencing)", "setting": "SLC7A11; 24 hrs IFN-γ", "value": "downregulation"}, {"measurement": "expression of SLC7A11 (immunoblot)", "setting": "SLC7A11; 48 hours incubation with IFN-γ", "value": "dose-dependently downregulated"}, {"measurement": "intracellular ROS in melanocytes", "setting": "melanocytes [3]", "value": "significantly elevated"}, {"measurement": "IC50 of IFN-γ causing 50% inhibition of melanocyte viability", "setting": "[4]", "value": 8.114, "unit": "ng/mL"}, {"measurement": "lowest concentration at which the morphology effect is present", "setting": "primary melanocytes [5]; dose-dependent effect", "value": 1, "unit": "ng/ml"}, {"measurement": "morphology change in melanocyte (loss of dendrite, ballooning of cytoplasm)", "setting": "primary melanocytes [5]; primary melanocytes, 7 days of treatment", "value": "contributes to morphology change"}, {"measurement": "IC50 of IFN-γ causing 50% inhibition of melanocyte melanogenesis", "setting": "[6]; human primary melanocytes, 7 days, melanin content", "value": 0.392, "unit": "ng/mL"}, {"measurement": "melanin content of melanocytes under IFN-γ", "setting": "[6]; spectrophotometer", "value": "decrease in melanin content in a dose-dependent manner"}, {"measurement": "expression of MITF (immunoblot)", "setting": "MITF; melanocytes, 24 hrs of treatment", "value": "dose-dependently downregulates"}, {"measurement": "expression of melanin regulators (MITF, MLANA, TYRP1, DCTT, TYR, TRPM1)", "setting": "MITF; primary melanocyte, IFN-γ 100 ng/ml 24 hrs vs control, transcriptome", "value": "induced downregulation of melanin regulators"}, {"measurement": "effect on cell viability of melanocytes (individual cytokine)", "setting": "primary melanocytes [1]", "value": "significantly decreases"}, {"measurement": "lipid peroxidation level in melanocytes", "setting": "melanocytes [7]", "value": "increased"}]}, {"molecule": "B3", "values": [{"measurement": "effect on cell viability of melanocytes (individual cytokine)", "setting": "primary melanocytes [1]", "value": "not CXCL9, CXCL10, or CXCL11 significantly decreases"}]}]}
